Assay results from paper PMC8254419.

Target: Aβ_(1-42)
Assay: thioflavin T fluorescence aggregation kinetics

k+k2 (product of the rate constants of elongation and secondary nucleation): 1e+11 M^−3s^−2
Substance: Aβ_(1-42) (peptide)
